This is an account of results in publication PMC9998502, “Functional selectivity of EM-2 analogs at the mu-opioid receptor” (Frontiers in Pharmacology, 2023).

Broadly, the Ki is the dissociation constant of the complex between target and ligand, obtained from inhibition or displacement.

Assay [1] has as its target T1, human mu opioid receptor (human, UniProt P35372 1-400). Kind of assay: cell-based or functional assay.
In assay [2] the target is T1, human mu opioid receptor. Kind of assay: radioligand binding; displacement of [3H]DAMGO from commercial membranes of CHO cells transfected with the human recombinant mu opioid receptor; Ki, mean ± SEM, n ≥ 3. Particulars: one partner purified. For orientation: Loss of bound radioactivity is the signal in a displacement assay; it reports binding, not function.
Assay [3] deals with T2, human kappa opioid receptor (human, UniProt P41145 1-380).
T2 construct: kappa opioid receptor, human recombinant, in membranes of transfected CHO cells; also called kappa receptor; source: commercial membranes of CHO cells transfected with human recombinant opioid receptors
Kind of assay: radioligand binding; displacement of [3H]U-69593 from commercial membranes of CHO cells transfected with the human recombinant kappa opioid receptor; Ki, mean ± SEM, n ≥ 3. The following applies: one partner purified.

In assay [4] the target is T3, human delta opioid receptor (human, UniProt P41143 1-372).
T3 construct: delta opioid receptor, human recombinant, in membranes of transfected CHO cells; also called delta receptor; source: commercial membranes of CHO cells transfected with human recombinant opioid receptors
The assay is described as follows: radioligand binding; displacement of [3H]deltorphin-2 from commercial membranes of CHO cells transfected with the human recombinant delta opioid receptor; Ki, mean ± SEM, n ≥ 3. The following applies: one partner purified.

Starred links: 1 amine or outer side, 2 acyl side, 3 side chain; linkers in the order of their positions; H or OH if unused. Non-standard residues stand in square brackets, D forms with d. No end group written: not given here. (R)β21Nal = (R)-β2-1-naphthylalanine, O=C([C@@H](CN[*:1])Cc1cccc2ccccc12)[*:2]; (R)β31Nal = (R)-β3-1-naphthylalanine, O=C(C[C@@H](Cc1cccc2ccccc12)N[*:1])[*:2]; Dmt = Cc1cc(O)cc(C)c1C[C@H](N)C(=O)O

T3 sequence (P41143 whole entry, stated change not applied): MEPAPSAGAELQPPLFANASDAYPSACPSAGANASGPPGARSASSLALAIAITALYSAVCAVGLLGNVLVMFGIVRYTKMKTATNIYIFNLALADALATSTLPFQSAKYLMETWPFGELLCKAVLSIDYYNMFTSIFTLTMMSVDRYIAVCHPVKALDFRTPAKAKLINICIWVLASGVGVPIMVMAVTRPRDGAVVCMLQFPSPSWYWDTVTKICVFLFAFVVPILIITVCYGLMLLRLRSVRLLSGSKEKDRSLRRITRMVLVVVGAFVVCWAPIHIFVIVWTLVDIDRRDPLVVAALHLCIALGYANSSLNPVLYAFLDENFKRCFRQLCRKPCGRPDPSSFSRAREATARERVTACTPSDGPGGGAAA
T1 sequence (P35372 whole entry): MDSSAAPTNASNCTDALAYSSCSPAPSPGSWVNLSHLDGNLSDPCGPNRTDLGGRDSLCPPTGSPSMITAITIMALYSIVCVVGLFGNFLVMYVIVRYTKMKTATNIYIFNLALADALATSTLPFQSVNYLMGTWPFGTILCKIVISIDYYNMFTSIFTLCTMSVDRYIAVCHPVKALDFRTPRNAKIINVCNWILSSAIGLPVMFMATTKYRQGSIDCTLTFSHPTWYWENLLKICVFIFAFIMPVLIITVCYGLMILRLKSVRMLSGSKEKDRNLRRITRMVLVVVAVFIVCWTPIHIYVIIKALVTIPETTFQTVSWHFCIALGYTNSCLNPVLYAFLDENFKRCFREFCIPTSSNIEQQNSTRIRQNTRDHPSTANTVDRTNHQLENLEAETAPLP
T2 sequence (P41145 whole entry): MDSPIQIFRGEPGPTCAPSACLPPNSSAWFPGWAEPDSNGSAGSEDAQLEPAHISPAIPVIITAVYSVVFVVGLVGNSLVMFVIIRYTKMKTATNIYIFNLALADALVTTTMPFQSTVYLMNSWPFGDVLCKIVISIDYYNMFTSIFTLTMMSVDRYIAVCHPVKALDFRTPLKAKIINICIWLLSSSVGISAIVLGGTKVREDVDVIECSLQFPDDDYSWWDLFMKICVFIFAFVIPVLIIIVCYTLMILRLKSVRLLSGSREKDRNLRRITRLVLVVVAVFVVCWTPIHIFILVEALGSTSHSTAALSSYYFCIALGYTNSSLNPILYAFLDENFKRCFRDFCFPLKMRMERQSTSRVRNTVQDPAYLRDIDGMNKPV

B1: EM-2 analog 12 (Tyr-Pro-(R)-β3-1-Nal-Phe-NH2) (peptide)
chain: YP[(R)β31Nal]F-NH2
modifications: N-terminus assumed
SMILES: NC(=O)[C@H](Cc1ccccc1)NC(=O)C[C@@H](Cc1cccc2ccccc12)NC(=O)[C@@H]1CCCN1C(=O)[C@@H](N)Cc1ccc(O)cc1
For B1, in the assay with human mu opioid receptor [1], the “calcium mobilization, CHO cells with human mu receptor and Gαqi5: α (Emax ratio to the standard agonist)” value is 0.97. Besides, the Ki is 32.1 nM with human mu opioid receptor [2], more than 1000 nM in assay [3] and more than 1000 nM in assay [4].

B2: EM-2 analog 10 (Tyr-Pro-(R)-β2-1-Nal-Phe-NH2) (peptide)
chain: YP[(R)β21Nal]F-NH2
modifications: N-terminus assumed
SMILES: NC(=O)[C@H](Cc1ccccc1)NC(=O)[C@@H](CNC(=O)[C@@H]1CCCN1C(=O)[C@@H](N)Cc1ccc(O)cc1)Cc1cccc2ccccc12
With B2, the “calcium mobilization, CHO cells with human mu receptor and Gαqi5: α (Emax ratio to the standard agonist)” value in the assay with human mu opioid receptor [1] was 0.25. The Ki is 34.9 nM in the assay with human mu opioid receptor [2], more than 1000 nM in assay [3] and more than 1000 nM in assay [4].

B3: EM-2 analog 11 (Dmt-Pro-(R)-β2-1-Nal-Phe-NH2) (peptide)
chain: [Dmt]P[(R)β21Nal]F-NH2
modifications: N-terminus assumed
SMILES: Cc1cc(O)cc(C)c1C[C@H](N)C(=O)N1CCC[C@H]1C(=O)NC[C@@H](Cc1cccc2ccccc12)C(=O)N[C@@H](Cc1ccccc1)C(N)=O
Regarding B3, the “calcium mobilization, CHO cells with human mu receptor and Gαqi5: α (Emax ratio to the standard agonist)” value with human mu opioid receptor [1] is 0.57. Further, the Ki with human mu opioid receptor [2] was 9.54 nM; in assay [3] it was more than 1000 nM; in assay [4], 675 nM.

B4: EM-2 analog 13 (Dmt-Pro-(R)-β3-1-Nal-Phe-NH2) (peptide)
chain: [Dmt]P[(R)β31Nal]F-NH2
modifications: N-terminus assumed
SMILES: Cc1cc(O)cc(C)c1C[C@H](N)C(=O)N1CCC[C@H]1C(=O)N[C@@H](CC(=O)N[C@@H](Cc1ccccc1)C(N)=O)Cc1cccc2ccccc12
For B4, the “calcium mobilization, CHO cells with human mu receptor and Gαqi5: α (Emax ratio to the standard agonist)” value with human mu opioid receptor [1] is 0.77. For the same molecule, the Ki was 2.75 nM with human mu opioid receptor [2], 915 nM in assay [3] and 722 nM in assay [4].
